# Test results: US20250332275A1, “Branched Polypeptide Carrier for Efficient Nucleic Acid Delivery and Its Variants” (SUZHOU HEALIRNA BIOTECHNOLOGY CO., LTD., priority 2022, published 2025)
# Ends that are not written are not given here.
# Test system: mRNA
# Assay: Agarose gel electrophoresis of branched polypeptide mixed with mRNA
# Type: physicochemical
# Conditions: 1.5% agarose, 190 V, 20 minutes
# Protocol: A 1.5% agarose gel was prepared by dissolving agarose in a TBE buffer using a microwave. After adding the sub-green dye, the solution was poured into the gel plate, and a comb was inserted. Polypeptide Sequences 9-12 samples were each mixed with mRNA and then mixed with the sample loading buffer in a 1:1 ratio and set aside after thorough mixing. The gel was loaded with Marker and the samples, then subjected to electrophoresis at 190 V for 20 minutes, and images were captured using a gel imaging system.
# [1] = polypeptide with mRNA at a 1:1 mass ratio
# [2] = polypeptide with mRNA at a 1:2 mass ratio
Substance,"retention of complex in sample well (mRNA encapsulation, FIG. 7) [1]","retention of complex in sample well (mRNA encapsulation, FIG. 7) [2]"
"K(LAALAALAALAALAA)KK(KSKKSKKSKC)KK(LAALAALAALAALAA)KK(KSKKSKKSKC)KK(LAALAALAALAALAA) (chain 1 KKKKKKKKK; chain 2 AALAALAALAALAAL; chain 3 CKSKKSKKSK; also: branched: C-termini of three chain 2 copies amide-linked to side chains of Lys1, Lys5, Lys9 of chain 1, C-termini of two chain 3 copies amide-linked to side chains of Lys3, Lys7 of chain 1) [Polypeptide Sequence 12]",remained within the sample wells,remained within the sample wells
"K(LAALAALAALAALAALAALAAC)KK(KSKKSKKSKKSKKSK)KK(LAALAALAALAALAALAALAAC) (chain 1 KKKKK; chain 2 CAALAALAALAALAALAALAAL; also: branched: C-termini of two chain 2 copies amide-linked to side chains of Lys1, Lys5 of chain 1, C-terminus of chain 3 amide-linked to side chain of Lys3 of chain 1) [Polypeptide Sequence 10]",remained within the sample wells,remained within the sample wells
"K(LAALAALAALAALAAC)KK(KDKDKDKDKDKD)KK(KDKDKDKDKDKD)KK(LAALAALAALAALAAC) (chain 1 KKKKKKK; chain 2 CAALAALAALAALAAL; chain 3 DKDKDKDKDKDK; also: branched: C-termini of two chain 2 copies amide-linked to side chains of Lys1, Lys7 of chain 1, C-termini of two chain 3 copies amide-linked to side chains of Lys3, Lys5 of chain 1) [Polypeptide Sequence 11]",remained within the sample wells,remained within the sample wells
"K(LAALAALAALAALAALAALAAC)KKKK(LAALAALAALAALAALAALAAC) (chain 1 KKKKK; chain 2 CAALAALAALAALAALAALAAL; also: branched: C-termini of two chain 2 copies amide-linked to side chains of Lys1, Lys5 of chain 1) [Polypeptide Sequence 9]",remained within the sample wells,remained within the sample wells
